The results in this text go back to paper PMC10381965 (2022).

The assay has as its target CENP-ΔQU complex (CENP-Q^1–294 and CENP-U^30–266) (S. cerevisiae, UniProt P53298 1-294; P38313 30-266). Put plainly: ITC. For orientation: Isothermal titration calorimetry measures the heat released or taken up as one component is titrated into another.

The Kd is the constant that tells how readily two partners part at equilibrium.

Molecule Ac-AGDQQSINDAALSLLQRTRATKNW-NH2 [CENP-A^END-2-R37A peptide] had an equilibrium dissociation constant (Kd) of 9.67 µM.
In the case of Ac-AGDQQSINDRALSLLQRTRATKNW-NH2 [CENP-A^END-2 peptide] it was 0.66 µM.
